Test results: US12679878B2, “CRF2 receptor agonists and their use in therapy” (SANOFI, priority 2020, dated 2026)
Starred links: 1 amine or outer side, 2 acyl side, 3 side chain; linkers in the order of their positions; H or OH if unused. Non-standard residues stand in square brackets, D forms with d. Groups on a side chain read outwards from the residue. No end group written: not given here. *: point of attachment. C18 diacid = O=C(O)CCCCCCCCCCCCCCCCC(=O)*; γGlu = O=C(O)[C@H](CCC(=O)[*:2])N[*:1]; Palmitoyl = CCCCCCCCCCCCCCCC(=O)*; AEEA = NCCOCCOCC(=O)O; Aib = CC(C)(N)C(=O)O

Molecular target: human corticotropin-releasing factor 2α (CRF2 α receptor) (human), Q13324
Assay: cell-based or functional assay

human corticotropin-releasing factor 2α (CRF2 α receptor) (human), Q13324, sequence (Q13324 20-411): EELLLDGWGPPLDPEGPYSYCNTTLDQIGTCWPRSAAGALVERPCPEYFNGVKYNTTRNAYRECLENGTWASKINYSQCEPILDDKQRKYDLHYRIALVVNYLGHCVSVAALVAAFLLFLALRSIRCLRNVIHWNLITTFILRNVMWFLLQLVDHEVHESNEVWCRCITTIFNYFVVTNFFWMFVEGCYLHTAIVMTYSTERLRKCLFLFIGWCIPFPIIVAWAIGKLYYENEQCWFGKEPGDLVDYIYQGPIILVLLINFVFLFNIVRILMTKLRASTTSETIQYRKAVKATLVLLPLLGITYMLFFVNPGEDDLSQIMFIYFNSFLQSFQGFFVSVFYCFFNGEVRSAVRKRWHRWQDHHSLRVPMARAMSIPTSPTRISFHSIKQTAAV

B1: SEQ ID NO: 44 (peptide)
peptide: IVLSLDVPIKLK([AEEA-AEEA-γGlu-C18 diacid])QILLEQAKQKKERAQAETNVRILERV-NH2
modifications: N-terminus assumed
SMILES: CC[C@H](C)[C@H](N)C(=O)N[C@H](C(=O)N[C@@H](CC(C)C)C(=O)N[C@@H](CO)C(=O)N[C@@H](CC(C)C)C(=O)N[C@@H](CC(=O)O)C(=O)N[C@H](C(=O)N1CCC[C@H]1C(=O)N[C@H](C(=O)N[C@@H](CCCCN)C(=O)N[C@@H](CC(C)C)C(=O)N[C@@H](CCCCNC(=O)COCCOCCNC(=O)COCCOCCNC(=O)CC[C@H](NC(=O)CCCCCCCCCCCCCCCCC(=O)O)C(=O)O)C(=O)N[C@@H](CCC(N)=O)C(=O)N[C@H](C(=O)N[C@@H](CC(C)C)C(=O)N[C@@H](CC(C)C)C(=O)N[C@@H](CCC(=O)O)C(=O)N[C@@H](CCC(N)=O)C(=O)N[C@@H](C)C(=O)N[C@@H](CCCCN)C(=O)N[C@@H](CCC(N)=O)C(=O)N[C@@H](CCCCN)C(=O)N[C@@H](CCCCN)C(=O)N[C@@H](CCC(=O)O)C(=O)N[C@@H](CCCNC(=N)N)C(=O)N[C@@H](C)C(=O)N[C@@H](CCC(N)=O)C(=O)N[C@@H](C)C(=O)N[C@@H](CCC(=O)O)C(=O)N[C@H](C(=O)N[C@@H](CC(N)=O)C(=O)N[C@H](C(=O)N[C@@H](CCCNC(=N)N)C(=O)N[C@H](C(=O)N[C@@H](CC(C)C)C(=O)N[C@@H](CCC(=O)O)C(=O)N[C@@H](CCCNC(=N)N)C(=O)N[C@H](C(N)=O)C(C)C)[C@@H](C)CC)C(C)C)[C@@H](C)O)[C@@H](C)CC)[C@@H](C)CC)C(C)C)C(C)C
With B1 the EC50 [nM], 0% HSA was 13.7 nM.

B2: SEQ ID NO: 2 (peptide)
peptide: IVLSLDVPIKLK([γGlu-Palmitoyl])KILLEQEKQEKEKQQAETNAQILAQV-NH2
modifications: N-terminus assumed
SMILES: CCCCCCCCCCCCCCCC(=O)N[C@@H](CCC(=O)NCCCC[C@H](NC(=O)[C@H](CC(C)C)NC(=O)[C@H](CCCCN)NC(=O)[C@@H](NC(=O)[C@@H]1CCCN1C(=O)[C@@H](NC(=O)[C@H](CC(=O)O)NC(=O)[C@H](CC(C)C)NC(=O)[C@H](CO)NC(=O)[C@H](CC(C)C)NC(=O)[C@@H](NC(=O)[C@@H](N)[C@@H](C)CC)C(C)C)C(C)C)[C@@H](C)CC)C(=O)N[C@@H](CCCCN)C(=O)N[C@H](C(=O)N[C@@H](CC(C)C)C(=O)N[C@@H](CC(C)C)C(=O)N[C@@H](CCC(=O)O)C(=O)N[C@@H](CCC(N)=O)C(=O)N[C@@H](CCC(=O)O)C(=O)N[C@@H](CCCCN)C(=O)N[C@@H](CCC(N)=O)C(=O)N[C@@H](CCC(=O)O)C(=O)N[C@@H](CCCCN)C(=O)N[C@@H](CCC(=O)O)C(=O)N[C@@H](CCCCN)C(=O)N[C@@H](CCC(N)=O)C(=O)N[C@@H](CCC(N)=O)C(=O)N[C@@H](C)C(=O)N[C@@H](CCC(=O)O)C(=O)N[C@H](C(=O)N[C@@H](CC(N)=O)C(=O)N[C@@H](C)C(=O)N[C@@H](CCC(N)=O)C(=O)N[C@H](C(=O)N[C@@H](CC(C)C)C(=O)N[C@@H](C)C(=O)N[C@@H](CCC(N)=O)C(=O)N[C@H](C(N)=O)C(C)C)[C@@H](C)CC)[C@@H](C)O)[C@@H](C)CC)C(=O)O
B2 gave an EC50 [nM], 0% HSA of 0.01 nM and an EC50 [nM], 0.1% HSA of 0.01 nM.

B3: SEQ ID NO: 42 (peptide)
peptide: IVLSLDVPIKLK([AEEA-AEEA-γGlu-C18 diacid])QILLEQERQR[Aib]ERQQAEKNVRILERV-NH2
modifications: N-terminus assumed
SMILES: CC[C@H](C)[C@H](N)C(=O)N[C@H](C(=O)N[C@@H](CC(C)C)C(=O)N[C@@H](CO)C(=O)N[C@@H](CC(C)C)C(=O)N[C@@H](CC(=O)O)C(=O)N[C@H](C(=O)N1CCC[C@H]1C(=O)N[C@H](C(=O)N[C@@H](CCCCN)C(=O)N[C@@H](CC(C)C)C(=O)N[C@@H](CCCCNC(=O)COCCOCCNC(=O)COCCOCCNC(=O)CC[C@H](NC(=O)CCCCCCCCCCCCCCCCC(=O)O)C(=O)O)C(=O)N[C@@H](CCC(N)=O)C(=O)N[C@H](C(=O)N[C@@H](CC(C)C)C(=O)N[C@@H](CC(C)C)C(=O)N[C@@H](CCC(=O)O)C(=O)N[C@@H](CCC(N)=O)C(=O)N[C@@H](CCC(=O)O)C(=O)N[C@@H](CCCNC(=N)N)C(=O)N[C@@H](CCC(N)=O)C(=O)N[C@@H](CCCNC(=N)N)C(=O)NC(C)(C)C(=O)N[C@@H](CCC(=O)O)C(=O)N[C@@H](CCCNC(=N)N)C(=O)N[C@@H](CCC(N)=O)C(=O)N[C@@H](CCC(N)=O)C(=O)N[C@@H](C)C(=O)N[C@@H](CCC(=O)O)C(=O)N[C@@H](CCCCN)C(=O)N[C@@H](CC(N)=O)C(=O)N[C@H](C(=O)N[C@@H](CCCNC(=N)N)C(=O)N[C@H](C(=O)N[C@@H](CC(C)C)C(=O)N[C@@H](CCC(=O)O)C(=O)N[C@@H](CCCNC(=N)N)C(=O)N[C@H](C(N)=O)C(C)C)[C@@H](C)CC)C(C)C)[C@@H](C)CC)[C@@H](C)CC)C(C)C)C(C)C
Binder B3 has an EC50 [nM], 0% HSA of 15.4 nM.

B4: SEQ ID NO: 40 (peptide)
peptide: IVLSLDVPIKLK([AEEA-AEEA-γGlu-C18 diacid])QILLEQERQRKERQQAETNVQILAQV-NH2
modifications: N-terminus assumed
SMILES: CC[C@H](C)[C@H](N)C(=O)N[C@H](C(=O)N[C@@H](CC(C)C)C(=O)N[C@@H](CO)C(=O)N[C@@H](CC(C)C)C(=O)N[C@@H](CC(=O)O)C(=O)N[C@H](C(=O)N1CCC[C@H]1C(=O)N[C@H](C(=O)N[C@@H](CCCCN)C(=O)N[C@@H](CC(C)C)C(=O)N[C@@H](CCCCNC(=O)COCCOCCNC(=O)COCCOCCNC(=O)CC[C@H](NC(=O)CCCCCCCCCCCCCCCCC(=O)O)C(=O)O)C(=O)N[C@@H](CCC(N)=O)C(=O)N[C@H](C(=O)N[C@@H](CC(C)C)C(=O)N[C@@H](CC(C)C)C(=O)N[C@@H](CCC(=O)O)C(=O)N[C@@H](CCC(N)=O)C(=O)N[C@@H](CCC(=O)O)C(=O)N[C@@H](CCCNC(=N)N)C(=O)N[C@@H](CCC(N)=O)C(=O)N[C@@H](CCCNC(=N)N)C(=O)N[C@@H](CCCCN)C(=O)N[C@@H](CCC(=O)O)C(=O)N[C@@H](CCCNC(=N)N)C(=O)N[C@@H](CCC(N)=O)C(=O)N[C@@H](CCC(N)=O)C(=O)N[C@@H](C)C(=O)N[C@@H](CCC(=O)O)C(=O)N[C@H](C(=O)N[C@@H](CC(N)=O)C(=O)N[C@H](C(=O)N[C@@H](CCC(N)=O)C(=O)N[C@H](C(=O)N[C@@H](CC(C)C)C(=O)N[C@@H](C)C(=O)N[C@@H](CCC(N)=O)C(=O)N[C@H](C(N)=O)C(C)C)[C@@H](C)CC)C(C)C)[C@@H](C)O)[C@@H](C)CC)[C@@H](C)CC)C(C)C)C(C)C
B4 was tested, and the EC50 [nM], 0% HSA was 15.4 nM.

B5: SEQ ID NO: 43 (peptide)
peptide: IVLSLDVPIKLK([AEEA-AEEA-γGlu-C18 diacid])QILLEQAKQKKLRAQAETNVRILERV-NH2
modifications: N-terminus assumed
SMILES: CC[C@H](C)[C@H](N)C(=O)N[C@H](C(=O)N[C@@H](CC(C)C)C(=O)N[C@@H](CO)C(=O)N[C@@H](CC(C)C)C(=O)N[C@@H](CC(=O)O)C(=O)N[C@H](C(=O)N1CCC[C@H]1C(=O)N[C@H](C(=O)N[C@@H](CCCCN)C(=O)N[C@@H](CC(C)C)C(=O)N[C@@H](CCCCNC(=O)COCCOCCNC(=O)COCCOCCNC(=O)CC[C@H](NC(=O)CCCCCCCCCCCCCCCCC(=O)O)C(=O)O)C(=O)N[C@@H](CCC(N)=O)C(=O)N[C@H](C(=O)N[C@@H](CC(C)C)C(=O)N[C@@H](CC(C)C)C(=O)N[C@@H](CCC(=O)O)C(=O)N[C@@H](CCC(N)=O)C(=O)N[C@@H](C)C(=O)N[C@@H](CCCCN)C(=O)N[C@@H](CCC(N)=O)C(=O)N[C@@H](CCCCN)C(=O)N[C@@H](CCCCN)C(=O)N[C@@H](CC(C)C)C(=O)N[C@@H](CCCNC(=N)N)C(=O)N[C@@H](C)C(=O)N[C@@H](CCC(N)=O)C(=O)N[C@@H](C)C(=O)N[C@@H](CCC(=O)O)C(=O)N[C@H](C(=O)N[C@@H](CC(N)=O)C(=O)N[C@H](C(=O)N[C@@H](CCCNC(=N)N)C(=O)N[C@H](C(=O)N[C@@H](CC(C)C)C(=O)N[C@@H](CCC(=O)O)C(=O)N[C@@H](CCCNC(=N)N)C(=O)N[C@H](C(N)=O)C(C)C)[C@@H](C)CC)C(C)C)[C@@H](C)O)[C@@H](C)CC)[C@@H](C)CC)C(C)C)C(C)C
For B5, the EC50 [nM], 0% HSA was 1.9 nM.

B6: SEQ ID NO: 41 (peptide)
peptide: IVLSLDVPIKLK([AEEA-AEEA-γGlu-C18 diacid])QILLEQERQRKERQQAEKNVRILERV-NH2
modifications: N-terminus assumed
SMILES: CC[C@H](C)[C@H](N)C(=O)N[C@H](C(=O)N[C@@H](CC(C)C)C(=O)N[C@@H](CO)C(=O)N[C@@H](CC(C)C)C(=O)N[C@@H](CC(=O)O)C(=O)N[C@H](C(=O)N1CCC[C@H]1C(=O)N[C@H](C(=O)N[C@@H](CCCCN)C(=O)N[C@@H](CC(C)C)C(=O)N[C@@H](CCCCNC(=O)COCCOCCNC(=O)COCCOCCNC(=O)CC[C@H](NC(=O)CCCCCCCCCCCCCCCCC(=O)O)C(=O)O)C(=O)N[C@@H](CCC(N)=O)C(=O)N[C@H](C(=O)N[C@@H](CC(C)C)C(=O)N[C@@H](CC(C)C)C(=O)N[C@@H](CCC(=O)O)C(=O)N[C@@H](CCC(N)=O)C(=O)N[C@@H](CCC(=O)O)C(=O)N[C@@H](CCCNC(=N)N)C(=O)N[C@@H](CCC(N)=O)C(=O)N[C@@H](CCCNC(=N)N)C(=O)N[C@@H](CCCCN)C(=O)N[C@@H](CCC(=O)O)C(=O)N[C@@H](CCCNC(=N)N)C(=O)N[C@@H](CCC(N)=O)C(=O)N[C@@H](CCC(N)=O)C(=O)N[C@@H](C)C(=O)N[C@@H](CCC(=O)O)C(=O)N[C@@H](CCCCN)C(=O)N[C@@H](CC(N)=O)C(=O)N[C@H](C(=O)N[C@@H](CCCNC(=N)N)C(=O)N[C@H](C(=O)N[C@@H](CC(C)C)C(=O)N[C@@H](CCC(=O)O)C(=O)N[C@@H](CCCNC(=N)N)C(=O)N[C@H](C(N)=O)C(C)C)[C@@H](C)CC)C(C)C)[C@@H](C)CC)[C@@H](C)CC)C(C)C)C(C)C
With B6 the EC50 [nM], 0% HSA was 15.6 nM.
